The target in the experiment is T1, human TNFα (human, UniProt P01375 77-233).
T1 construct: also called hTNFα
Briefly: ELISA, cytokine coated on the plate; the text value differs from the table cell 43.8.

T1 sequence (P01375 77-233 limits assumed): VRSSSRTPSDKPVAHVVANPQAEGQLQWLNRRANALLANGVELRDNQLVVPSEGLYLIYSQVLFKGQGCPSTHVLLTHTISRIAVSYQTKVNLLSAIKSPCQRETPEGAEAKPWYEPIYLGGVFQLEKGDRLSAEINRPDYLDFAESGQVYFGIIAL
Protocol: The wells were then blocked with ELISA TBS buffer containing 5% BSA at 100 μl/well and incubated at room temperature for 1 hour, followed by three washes with ELISA TBS buffer (200 μl/well). […] After three washes with ELISA TBS buffer (200 μl/well), HRP-conjugated secondary antibody (Abcam, Cat. Ab98624) was applied and incubated at room temperature for 1 hour.

B1: IL-17RA/RC-Fc-TNFR2 fusion protein T1-T4-14 (Fc fusion)
chain: LRLLDHRAPVCSQPGLNCTVKNSDCLDDSWIHPRNLTPSSPKDLQIQLHFAHTQQGDLVPVAHIEWTLQTDASILYLEGAELSVLQLDTNERLCVRFEFLSKLRHHHRRWRFTFSHFVVDPGQEYEVTVHHLPKPIPDGDPNHQSKNFLVPDCEHPRMKVTTPCMSSALPWLNVSADGDNVHLVLNVSEEQHFGLSLYWNQVQGPPKPRWHKNLTGPQIITLNHTDLVPCLCIQVWPLEPDSVRTNICPFREDPRAHQNLWQAARLRLLTLQSWLLDAPCSLPAEAALCWRAPGGDPCQPLVPPLSWENVTVDKVLEFPLLKGHPNLCVQVNSSEKLQLQECLWADSLGPLKDDVLLLETRGPQDNRSLCALEPSGCTSLPSKASTRAARLGEYLLQDLQSGQCLQLWDDDLGALWACPMDKYIHKTGIEGRMDRNTGRGGEEKKKEKEKEEQEERETKTPECPSHTQPLGVFLFPPKPKDTLMISRTPEVTCVVVDVSQEDPEVQFNWYVDGVEVHNAKTKPREEQFNSTYRVVSVLTVLHQDWLNGKEYKCKVSNKGLPSSIEKTISKAKGQPREPQVYTLPPSQEEMTKNQVSLTCLVKGFYPSDIAVEWESNGQPENNYKTTPPVLDSDGSFFLYSRLTVDKSRWQEGNVFSCSVMHEALHNHYTQKSLSLSLGKGGGGSGGGGSGGGGSLELPAQVAFTPYAPEPGSTCRLREYYDQTAQMCCAKCPPGQHAKVFCTKTSDTVCDSCEDSTYTQLWNWVPECLSCSSRCSSDQVETQACTREQNRICTCRPGWYCALSKQEGCRLCAPLSKCRPGFGVARPGTETSDVVCKPCAPGTFSNTTSSTDICRPHQICSVVAIPGNASMDAVCTSTSPTRSMAPGAVHLPQPVSTRSQHTQPTPGPSTAPSTSILLPMGPSPPAEGSTGD
notes: Structure T1c-Fc-T4g; also called T1c-Fc-T4g; IL-17RA/RC-Fc-TNFR2 (T1-T4-14)
As usually defined, the EC50 is the concentration at which the effect is half-maximal. The low end stands for a more potent agent, the high end for a less potent agent. In the case of B1, the EC50 came to 0.0431 µg/mL.

Source of the values: patent US20260265340A1 (CUROGEN TECHNOLOGY, published 2026).
